Molecular target: ubiquitin^TAMRA (C-terminal TAMRA-labelled ubiquitin) (UniProt P0CG48)
Test: fluorescence polarisation

Substance	Kd [µM]
HOIP^LDD (domain or fragment)	97
HOIP^LDD C930A (domain or fragment)	734

From article PMC3463842
